In paper PMC11862925:

What was measured:
[1] = molecular target: B.1.617.1/3 variant RBD (L452R, E484Q) (SARS-CoV-2) (UniProt P0DTC2); experiment: BLI
[2] = molecular target: B.1.351 variant RBD (K417N, E484K, N501Y) (SARS-CoV-2) (UniProt P0DTC2); experiment: BLI

## ACE2-COMP (from UniProt Q9BYF1 19-615; P35444 29-73)
[1]
  percent of bound ACE2-COMP retained after 8 h of dissociation: 90%
[2]
  percent of bound ACE2-COMP retained after 8 h of dissociation: 90%
